Experimental findings from US20190085093A1 (SEOUL NATIONAL UNIVERSITY R AND DB FOUNDATION, published 2019) are described below.

Assay [1] addresses T1, Akt1 (UniProt P31749 1-480).
T1 construct: Endogenous protein detected with an Akt1 antibody (LF-MA0245); also called endogenous Akt1
The assay is described as follows: biotin peptide on streptavidin plate, cell lysate, detection with Akt1 antibody. From the text:
To confirm the binding affinity between Akt1 and Akt1 motif-containing FCHo1 amino acid sequence-derived peptides, biotin was conjugated to peptides to complete the synthetization. The peptides were reacted and attached to on the streptavidin-attached plate. After treating with the cell lysates, the binding affinity of the peptide and Akt1 was confirmed by the Akt1 antibody. The experiment process and its result of confirming in vitro binding affinity of Akt1 according to respective peptides derived from FCHo1 binding sites are illustrated in FIG. 28.

Assay [2] deals with T1, Akt1. As to the kind of experiment: immunofluorescence and PLA, A549 cells. The procedure:
A549 cells were placed in 8-well chamber cover glasses or high-precision cover glasses and were fixed with 3% paraformaldehyde for 10 minutes at room temperature, permeabilized with 0.5% Triton® X-100 (Sigma-Aldrich) for 5 min, blocked for 30 minutes. Then, the cells were incubated with primary or secondary antibodies in blocking solution (PBS with 0.1% saponin and 3% BSA). Alexa Fluor 647 conjugated anti-rabbit secondary antibody and an oxygen scavenging system (0.5 mg/ml glucose oxidase, 40 μg/ml catalase, 10% glucose, pH 7.4) were used for stochastic optical reconstruction microscopy (dSTORM) imaging. Before imaging, 30 mM mercaptoethylamine ([…]; Sigma) was added to obtain a final thiol concentration of 10-200 mM. All dSTORM and SIM images were obtained from Carl Zeiss ELYRA PS.1 (super-resolution microscopy), and all CLSM images were obtained from the Carl Zeiss LSM710 (confocal laser scanning microscope).
Immunofluorescence and PLA assays confirmed whether the F-BAR domain binds to Akt1 at the ICB and plasma membrane and FCHo1 and Akt1 interact in the midbody. […] Interaction of FCHo1 and Akt1 in the midbody was confirmed by PLA, and Calmodulin 1 was used as an ICB marker. The results are illustrated in FIG. 17.

Assay [3] concerns the target T2, FCHo1-C-3×DDK (full-length wild-type FCHo1 with C-terminally fused 3×FLAG tag) (human, UniProt O14526 1-889).
T2 construct: Expressed in A549 cells and pulled down with anti-FLAG gel; also called FCHo1-FLAG; wt FCHo1; not shown: C-terminal 3×DDK (3×FLAG) tag of the pCMV6-C-3×DDK vector
T2 sequence (looked up): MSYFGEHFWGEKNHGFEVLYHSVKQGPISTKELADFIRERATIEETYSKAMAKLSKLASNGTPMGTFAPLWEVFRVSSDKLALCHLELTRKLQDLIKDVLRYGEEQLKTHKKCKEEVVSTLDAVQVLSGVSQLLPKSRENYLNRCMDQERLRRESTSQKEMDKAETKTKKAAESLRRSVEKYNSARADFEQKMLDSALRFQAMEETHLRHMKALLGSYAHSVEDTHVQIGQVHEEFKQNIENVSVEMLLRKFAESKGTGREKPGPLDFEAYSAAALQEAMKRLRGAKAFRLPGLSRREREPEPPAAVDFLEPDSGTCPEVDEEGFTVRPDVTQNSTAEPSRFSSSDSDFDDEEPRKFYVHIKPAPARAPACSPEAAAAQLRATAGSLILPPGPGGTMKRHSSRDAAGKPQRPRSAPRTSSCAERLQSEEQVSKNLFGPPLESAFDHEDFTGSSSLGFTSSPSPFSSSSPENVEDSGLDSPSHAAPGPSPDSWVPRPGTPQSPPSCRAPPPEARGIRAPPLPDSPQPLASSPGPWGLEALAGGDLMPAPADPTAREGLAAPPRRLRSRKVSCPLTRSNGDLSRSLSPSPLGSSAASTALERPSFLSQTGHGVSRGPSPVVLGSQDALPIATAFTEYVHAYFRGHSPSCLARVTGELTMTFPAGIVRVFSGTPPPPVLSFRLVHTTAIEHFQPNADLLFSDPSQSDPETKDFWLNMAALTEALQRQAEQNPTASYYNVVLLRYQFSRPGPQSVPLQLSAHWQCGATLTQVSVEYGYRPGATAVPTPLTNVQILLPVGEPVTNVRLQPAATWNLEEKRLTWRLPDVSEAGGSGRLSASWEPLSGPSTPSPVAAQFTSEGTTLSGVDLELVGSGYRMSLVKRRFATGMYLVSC
As to the kind of experiment: co-immunoprecipitation with anti-FLAG antibody.

Ends that are not written are not given here.

T1 sequence (P31749 whole entry): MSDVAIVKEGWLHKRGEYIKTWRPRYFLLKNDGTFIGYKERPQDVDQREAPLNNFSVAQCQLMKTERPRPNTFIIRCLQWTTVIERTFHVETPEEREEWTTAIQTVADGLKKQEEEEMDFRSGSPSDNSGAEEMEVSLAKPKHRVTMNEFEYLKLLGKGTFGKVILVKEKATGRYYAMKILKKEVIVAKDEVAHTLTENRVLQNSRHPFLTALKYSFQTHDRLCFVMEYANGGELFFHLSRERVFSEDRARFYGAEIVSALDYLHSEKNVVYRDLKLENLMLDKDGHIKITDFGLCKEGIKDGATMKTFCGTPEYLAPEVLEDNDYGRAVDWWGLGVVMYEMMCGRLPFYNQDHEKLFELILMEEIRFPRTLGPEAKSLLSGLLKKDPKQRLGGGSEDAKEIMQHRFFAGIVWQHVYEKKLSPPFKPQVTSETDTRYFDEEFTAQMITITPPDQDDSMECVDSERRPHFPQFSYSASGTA

B1: peptide 560-571 of FCHo1 (PPRRLRSRKVSC), biotin-conjugated (peptide)
peptide: PPRRLRSRKVSC
modifications: also: biotin conjugated, position not given here
notes: Attached to a streptavidin plate by its biotin
B1: in assay [1], the binding result is listed as “binds”.

B2: C-terminal (CT) fragment of FCHo1 cleaved at R563 (other, human, UniProt O14526 564-889, looked up)
chain: LRSRKVSCPLTRSNGDLSRSLSPSPLGSSAASTALERPSFLSQTGHGVSRGPSPVVLGSQDALPIATAFTEYVHAYFRGHSPSCLARVTGELTMTFPAGIVRVFSGTPPPPVLSFRLVHTTAIEHFQPNADLLFSDPSQSDPETKDFWLNMAALTEALQRQAEQNPTASYYNVVLLRYQFSRPGPQSVPLQLSAHWQCGATLTQVSVEYGYRPGATAVPTPLTNVQILLPVGEPVTNVRLQPAATWNLEEKRLTWRLPDVSEAGGSGRLSASWEPLSGPSTPSPVAAQFTSEGTTLSGVDLELVGSGYRMSLVKRRFATGMYLVSC
notes: Fragment in cells, seen by immunofluorescence and PLA with the α584-804 antibody
Take B2: the binding result in assay [2] is given as “binds”.

B3: CT-fragment (564-889aa) of FCHo1-HA (other, human, UniProt O14526 564-889, looked up)
chain: LRSRKVSCPLTRSNGDLSRSLSPSPLGSSAASTALERPSFLSQTGHGVSRGPSPVVLGSQDALPIATAFTEYVHAYFRGHSPSCLARVTGELTMTFPAGIVRVFSGTPPPPVLSFRLVHTTAIEHFQPNADLLFSDPSQSDPETKDFWLNMAALTEALQRQAEQNPTASYYNVVLLRYQFSRPGPQSVPLQLSAHWQCGATLTQVSVEYGYRPGATAVPTPLTNVQILLPVGEPVTNVRLQPAATWNLEEKRLTWRLPDVSEAGGSGRLSASWEPLSGPSTPSPVAAQFTSEGTTLSGVDLELVGSGYRMSLVKRRFATGMYLVSC
notes: Cleavage product of FCHo1-HA in the cells, seen on the blot of the co-IP; not shown: C-terminal 3×HA tag
With B3, in assay [3], the binding result is on record as “no binding”.

B4: peptide 562-571 of FCHo1 (RRLRSRKVSC), biotin-conjugated (peptide)
peptide: RRLRSRKVSC
modifications: also: biotin conjugated, position not given here
notes: as for B1
As to B4, in assay [1], the binding result is recorded as “binds”.
